# From article PMC5698488
# Molecular target: BG505 Olio6 trimer (HIV-1 (isolate BG505))
# Assay: SEC-MALS
substance,measurement,value
BG505 Olio6 trimer (complex),stoichiometry N,3
